Source: US20220135684A1 (Xencor, published 2022)

B1: αPDL1×αCD28 bsAb with PDL1 binding domain 2G4_H1.12_L1.66 and CD28 binding domain 1A7_H1.14_L1.71 (bispecific antibody)
heavy: EVQLLESGGGLVQPGGSLRLSCAASGFTFSVYDMSWVRQAPGKRLEWVSTISSGGSFTHYPDSVKGRFTISRDNSKNTLYLQMNSLRAEDTAVYYCVRRSLDWYFDVWGAGTTVTVSSASTKGPSVFPLAPSSKSTSGGTAALGCLVKDYFPEPVTVSWNSGALTSGVHTFPAVLQSSGLYSLSSVVTVPSSSLGTQTYICNVNHKPSDTKVDKKVEPKSCDKTHTCPPCPAPPVAGPSVFLFPPKPKDTLMISRTPEVTCVVVDVKHEDPEVKFNWYVDGVEVHNAKTKPREEEYNSTYRVVSVLTVLHQDWLNGKEYKCKVSNKALPAPIEKTISKAKGQPREPQVYTLPPSREEMTKNQVSLTCDVSGFYPSDIAVEWESDGQPENNYKTTPPVLDSDGSFFLYSKLTVDKSRWEQGDVFSCSVMHEALHNHYTQKSLSLSPGK
scFv-Fc: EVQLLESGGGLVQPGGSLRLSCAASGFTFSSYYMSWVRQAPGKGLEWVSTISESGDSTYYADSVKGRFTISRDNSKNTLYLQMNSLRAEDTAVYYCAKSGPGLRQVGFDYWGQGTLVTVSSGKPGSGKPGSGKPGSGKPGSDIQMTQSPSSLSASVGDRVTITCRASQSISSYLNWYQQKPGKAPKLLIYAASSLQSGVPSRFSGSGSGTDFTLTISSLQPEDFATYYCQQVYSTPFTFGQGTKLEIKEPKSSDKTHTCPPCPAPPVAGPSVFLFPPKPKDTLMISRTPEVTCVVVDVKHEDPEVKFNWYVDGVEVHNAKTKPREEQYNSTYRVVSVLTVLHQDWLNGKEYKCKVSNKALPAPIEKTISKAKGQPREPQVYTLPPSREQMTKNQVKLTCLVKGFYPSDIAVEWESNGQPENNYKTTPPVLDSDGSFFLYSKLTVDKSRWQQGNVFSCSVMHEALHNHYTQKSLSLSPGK
light: EIVLTQSPGTLSLSPGERATLSCRVSSSIQSTNLHWYQQKPGQSPRPLIYGTSNLATGVPVRFSGSGSGTDYTLTISRLEPEDFAVYYCQQWSSYPLYTFGGGTKVEIKRTVAAPSVFIFPPSDEQLKSGTASVVCLLNNFYPREAKVQWKVDNALQSGNSQESVTEQDSKDSTYSLSSTLTLSKADYEKHKVYACEVTHQGLSSPVTKSFNRGEC
B2: αPDL1×αCD28 bsAb with PDL1 binding domain 2G4_H1.12_L1.68 and CD28 binding domain 1A7_H1.14_L1.71 (bispecific antibody)
heavy: EVQLLESGGGLVQPGGSLRLSCAASGFTFSVYDMSWVRQAPGKRLEWVSTISSGGSFTHYPDSVKGRFTISRDNSKNTLYLQMNSLRAEDTAVYYCVRRSLDWYFDVWGAGTTVTVSSASTKGPSVFPLAPSSKSTSGGTAALGCLVKDYFPEPVTVSWNSGALTSGVHTFPAVLQSSGLYSLSSVVTVPSSSLGTQTYICNVNHKPSDTKVDKKVEPKSCDKTHTCPPCPAPPVAGPSVFLFPPKPKDTLMISRTPEVTCVVVDVKHEDPEVKFNWYVDGVEVHNAKTKPREEEYNSTYRVVSVLTVLHQDWLNGKEYKCKVSNKALPAPIEKTISKAKGQPREPQVYTLPPSREEMTKNQVSLTCDVSGFYPSDIAVEWESDGQPENNYKTTPPVLDSDGSFFLYSKLTVDKSRWEQGDVFSCSVMHEALHNHYTQKSLSLSPGK
scFv-Fc: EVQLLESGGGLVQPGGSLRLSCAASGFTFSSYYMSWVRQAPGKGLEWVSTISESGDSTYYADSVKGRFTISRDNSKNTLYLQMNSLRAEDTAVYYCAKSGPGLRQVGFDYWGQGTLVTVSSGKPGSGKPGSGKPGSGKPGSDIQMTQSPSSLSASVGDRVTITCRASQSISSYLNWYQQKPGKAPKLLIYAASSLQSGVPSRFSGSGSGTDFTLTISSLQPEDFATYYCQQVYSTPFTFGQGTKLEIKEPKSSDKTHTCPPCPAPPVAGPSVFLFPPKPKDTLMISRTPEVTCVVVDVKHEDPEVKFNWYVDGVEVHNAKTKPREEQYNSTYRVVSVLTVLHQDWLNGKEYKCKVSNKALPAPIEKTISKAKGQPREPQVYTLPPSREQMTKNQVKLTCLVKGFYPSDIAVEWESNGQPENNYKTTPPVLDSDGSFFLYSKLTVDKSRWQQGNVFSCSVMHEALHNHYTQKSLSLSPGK
light: EIVLTQSPGTLSLSPGERATLSCRVSSSIQSTNLHWYQQKPGQSPRPLIYGTSNLASGVPVRFSGSGSGTDYTLTISRLEPEDFAVYYCQQWSSYPLYTFGGGTKVEIKRTVAAPSVFIFPPSDEQLKSGTASVVCLLNNFYPREAKVQWKVDNALQSGNSQESVTEQDSKDSTYSLSSTLTLSKADYEKHKVYACEVTHQGLSSPVTKSFNRGEC
B3: αPDL1×αCD28 bsAb with PDL1 binding domain 2G4_H1.12_L1.24 and CD28 binding domain 1A7_H1.14_L1.71 (bispecific antibody)
heavy: EVQLLESGGGLVQPGGSLRLSCAASGFTFSVYDMSWVRQAPGKRLEWVSTISSGGSFTHYPDSVKGRFTISRDNSKNTLYLQMNSLRAEDTAVYYCVRRSLDWYFDVWGAGTTVTVSSASTKGPSVFPLAPSSKSTSGGTAALGCLVKDYFPEPVTVSWNSGALTSGVHTFPAVLQSSGLYSLSSVVTVPSSSLGTQTYICNVNHKPSDTKVDKKVEPKSCDKTHTCPPCPAPPVAGPSVFLFPPKPKDTLMISRTPEVTCVVVDVKHEDPEVKFNWYVDGVEVHNAKTKPREEEYNSTYRVVSVLTVLHQDWLNGKEYKCKVSNKALPAPIEKTISKAKGQPREPQVYTLPPSREEMTKNQVSLTCDVSGFYPSDIAVEWESDGQPENNYKTTPPVLDSDGSFFLYSKLTVDKSRWEQGDVFSCSVMHEALHNHYTQKSLSLSPGK
scFv-Fc: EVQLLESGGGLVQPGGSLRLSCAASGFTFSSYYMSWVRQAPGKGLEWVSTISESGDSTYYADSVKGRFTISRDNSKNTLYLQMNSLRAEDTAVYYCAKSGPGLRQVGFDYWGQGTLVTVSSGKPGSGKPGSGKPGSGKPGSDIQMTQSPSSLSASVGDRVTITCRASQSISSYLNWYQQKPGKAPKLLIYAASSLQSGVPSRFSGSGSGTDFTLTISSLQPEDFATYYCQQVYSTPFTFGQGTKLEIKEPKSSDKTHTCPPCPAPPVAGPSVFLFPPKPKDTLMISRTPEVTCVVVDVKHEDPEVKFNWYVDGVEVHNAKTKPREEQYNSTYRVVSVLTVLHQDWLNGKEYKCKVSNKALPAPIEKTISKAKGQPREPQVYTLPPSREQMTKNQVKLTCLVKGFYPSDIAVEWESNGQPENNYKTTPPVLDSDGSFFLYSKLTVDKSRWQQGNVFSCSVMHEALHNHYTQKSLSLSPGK
light: EIVLTQSPGTLSLSPGERATLSCRVSSSIQSTNLHWYQQKPGQSPRPLIYGTSVLATGVPVRFSGSGSGTDYTLTISRLEPEDFAVYYCQQWSSYPLYTFGGGTKVEIKRTVAAPSVFIFPPSDEQLKSGTASVVCLLNNFYPREAKVQWKVDNALQSGNSQESVTEQDSKDSTYSLSSTLTLSKADYEKHKVYACEVTHQGLSSPVTKSFNRGEC
notes: also called XENP38512; XENP40036
B4: αPDL1×αCD28 bsAb with PDL1 binding domain 2G4_H1.12_L1.14 and CD28 binding domain 1A7_H1.14_L1.71 (bispecific antibody)
heavy: EVQLLESGGGLVQPGGSLRLSCAASGFTFSVYDMSWVRQAPGKRLEWVSTISSGGSFTHYPDSVKGRFTISRDNSKNTLYLQMNSLRAEDTAVYYCVRRSLDWYFDVWGAGTTVTVSSASTKGPSVFPLAPSSKSTSGGTAALGCLVKDYFPEPVTVSWNSGALTSGVHTFPAVLQSSGLYSLSSVVTVPSSSLGTQTYICNVNHKPSDTKVDKKVEPKSCDKTHTCPPCPAPPVAGPSVFLFPPKPKDTLMISRTPEVTCVVVDVKHEDPEVKFNWYVDGVEVHNAKTKPREEEYNSTYRVVSVLTVLHQDWLNGKEYKCKVSNKALPAPIEKTISKAKGQPREPQVYTLPPSREEMTKNQVSLTCDVSGFYPSDIAVEWESDGQPENNYKTTPPVLDSDGSFFLYSKLTVDKSRWEQGDVFSCSVMHEALHNHYTQKSLSLSPGK
scFv-Fc: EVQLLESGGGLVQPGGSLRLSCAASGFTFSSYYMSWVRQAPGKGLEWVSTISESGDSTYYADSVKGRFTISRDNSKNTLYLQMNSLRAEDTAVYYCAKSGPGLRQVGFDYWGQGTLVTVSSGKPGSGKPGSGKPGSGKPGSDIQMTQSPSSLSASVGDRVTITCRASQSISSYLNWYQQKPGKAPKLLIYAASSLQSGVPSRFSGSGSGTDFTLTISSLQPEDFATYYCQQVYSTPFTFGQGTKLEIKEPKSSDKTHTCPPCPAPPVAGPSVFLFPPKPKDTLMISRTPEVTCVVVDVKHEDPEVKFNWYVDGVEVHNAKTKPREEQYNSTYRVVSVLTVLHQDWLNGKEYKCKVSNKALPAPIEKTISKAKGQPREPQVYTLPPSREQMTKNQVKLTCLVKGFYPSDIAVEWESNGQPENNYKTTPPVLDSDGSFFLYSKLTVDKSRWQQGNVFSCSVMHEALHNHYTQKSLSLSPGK
light: EIVLTQSPGTLSLSPGERATLSCRVSSSIQSSNLHWYQQKPGQSPRPLIYGTSNLASGVPVRFSGSGSGTDYTLTISRLEPEDFAVYYCQQWSSYPLYTFGGGTKVEIKRTVAAPSVFIFPPSDEQLKSGTASVVCLLNNFYPREAKVQWKVDNALQSGNSQESVTEQDSKDSTYSLSSTLTLSKADYEKHKVYACEVTHQGLSSPVTKSFNRGEC
notes: also called XENP40409 (non-Xtend analog of XENP40706)
B5: XENP37561 (bispecific antibody)
heavy: EVQLLESGGGLVQPGGSLRLSCAASGFTFSSYDMSWVRQAPGKRLEWVSTISSGGSFTHYPDSVKGRFTISRDNSKNTLYLQMNSLRAEDTAVYYCVRRSGDWYFDVWGAGTTVTVSSASTKGPSVFPLAPSSKSTSGGTAALGCLVKDYFPEPVTVSWNSGALTSGVHTFPAVLQSSGLYSLSSVVTVPSSSLGTQTYICNVNHKPSDTKVDKKVEPKSCDKTHTCPPCPAPPVAGPSVFLFPPKPKDTLMISRTPEVTCVVVDVKHEDPEVKFNWYVDGVEVHNAKTKPREEEYNSTYRVVSVLTVLHQDWLNGKEYKCKVSNKALPAPIEKTISKAKGQPREPQVYTLPPSREEMTKNQVSLTCDVSGFYPSDIAVEWESDGQPENNYKTTPPVLDSDGSFFLYSKLTVDKSRWEQGDVFSCSVMHEALHNHYTQKSLSLSPGK
scFv-Fc: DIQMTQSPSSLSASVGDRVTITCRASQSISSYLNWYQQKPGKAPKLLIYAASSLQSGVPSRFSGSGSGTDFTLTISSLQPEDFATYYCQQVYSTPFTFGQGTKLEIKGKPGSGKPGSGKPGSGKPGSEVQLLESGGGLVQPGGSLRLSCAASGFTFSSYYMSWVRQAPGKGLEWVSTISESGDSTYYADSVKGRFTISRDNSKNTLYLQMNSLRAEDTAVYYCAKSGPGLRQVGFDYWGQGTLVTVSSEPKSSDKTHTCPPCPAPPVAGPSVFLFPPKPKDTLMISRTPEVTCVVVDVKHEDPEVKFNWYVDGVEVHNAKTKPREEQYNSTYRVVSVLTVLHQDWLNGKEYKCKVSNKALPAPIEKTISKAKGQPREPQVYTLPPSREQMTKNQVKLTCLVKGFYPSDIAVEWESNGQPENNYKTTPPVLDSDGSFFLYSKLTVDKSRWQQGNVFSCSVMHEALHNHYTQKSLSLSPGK
light: EIVLTQSPGTLSLSPGERATLSCRVSSSISSSNLHWYQQKPGQSPRPLIYGTSNLASGVPVRFSGSGSGTDYTLTISRLEPEDFAVYYCQQWSSYPLYTFGGGTKVEIKRTVAAPSVFIFPPSDEQLKSGTASVVCLLNNFYPREAKVQWKVDNALQSGNSQESVTEQDSKDSTYSLSSTLTLSKADYEKHKVYACEVTHQGLSSPVTKSFNRGEC
notes: 1+1 Fab-scFv-Fc format; scFv in VL-linker-VH orientation; also called αPDL1×αCD28 bsAb; 1A7_L1.71_H1.14
B6: XENP37559 (bispecific antibody)
heavy: EVQLLESGGGLVQPGGSLRLSCAASGFTFSSYDMSWVRQAPGKRLEWVSTISSGGSFTHYPDSVKGRFTISRDNSKNTLYLQMNSLRAEDTAVYYCVRRSGDWYFDVWGAGTTVTVSSASTKGPSVFPLAPSSKSTSGGTAALGCLVKDYFPEPVTVSWNSGALTSGVHTFPAVLQSSGLYSLSSVVTVPSSSLGTQTYICNVNHKPSDTKVDKKVEPKSCDKTHTCPPCPAPPVAGPSVFLFPPKPKDTLMISRTPEVTCVVVDVKHEDPEVKFNWYVDGVEVHNAKTKPREEEYNSTYRVVSVLTVLHQDWLNGKEYKCKVSNKALPAPIEKTISKAKGQPREPQVYTLPPSREEMTKNQVSLTCDVSGFYPSDIAVEWESDGQPENNYKTTPPVLDSDGSFFLYSKLTVDKSRWEQGDVFSCSVMHEALHNHYTQKSLSLSPGK
scFv-Fc: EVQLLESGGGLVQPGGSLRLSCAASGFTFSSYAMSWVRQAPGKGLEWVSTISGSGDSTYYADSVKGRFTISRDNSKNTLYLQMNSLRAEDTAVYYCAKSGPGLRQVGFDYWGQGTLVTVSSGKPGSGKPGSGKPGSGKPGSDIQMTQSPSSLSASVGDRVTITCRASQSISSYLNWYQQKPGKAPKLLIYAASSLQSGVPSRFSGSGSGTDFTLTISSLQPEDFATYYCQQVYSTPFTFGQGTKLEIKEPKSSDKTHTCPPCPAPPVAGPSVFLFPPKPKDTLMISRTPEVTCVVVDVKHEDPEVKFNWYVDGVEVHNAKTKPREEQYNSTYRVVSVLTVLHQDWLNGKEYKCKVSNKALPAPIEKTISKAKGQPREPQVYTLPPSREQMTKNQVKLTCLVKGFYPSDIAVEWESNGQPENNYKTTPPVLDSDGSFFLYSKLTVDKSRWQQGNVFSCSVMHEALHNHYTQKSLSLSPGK
light: EIVLTQSPGTLSLSPGERATLSCRVSSSISSSNLHWYQQKPGQSPRPLIYGTSNLASGVPVRFSGSGSGTDYTLTISRLEPEDFAVYYCQQWSSYPLYTFGGGTKVEIKRTVAAPSVFIFPPSDEQLKSGTASVVCLLNNFYPREAKVQWKVDNALQSGNSQESVTEQDSKDSTYSLSSTLTLSKADYEKHKVYACEVTHQGLSSPVTKSFNRGEC
notes: 1+1 Fab-scFv-Fc format; also called αPDL1×αCD28 bsAb; 1A7_H1_L1.71
B7: XENP37560 (bispecific antibody)
heavy: EVQLLESGGGLVQPGGSLRLSCAASGFTFSSYDMSWVRQAPGKRLEWVSTISSGGSFTHYPDSVKGRFTISRDNSKNTLYLQMNSLRAEDTAVYYCVRRSGDWYFDVWGAGTTVTVSSASTKGPSVFPLAPSSKSTSGGTAALGCLVKDYFPEPVTVSWNSGALTSGVHTFPAVLQSSGLYSLSSVVTVPSSSLGTQTYICNVNHKPSDTKVDKKVEPKSCDKTHTCPPCPAPPVAGPSVFLFPPKPKDTLMISRTPEVTCVVVDVKHEDPEVKFNWYVDGVEVHNAKTKPREEEYNSTYRVVSVLTVLHQDWLNGKEYKCKVSNKALPAPIEKTISKAKGQPREPQVYTLPPSREEMTKNQVSLTCDVSGFYPSDIAVEWESDGQPENNYKTTPPVLDSDGSFFLYSKLTVDKSRWEQGDVFSCSVMHEALHNHYTQKSLSLSPGK
scFv-Fc: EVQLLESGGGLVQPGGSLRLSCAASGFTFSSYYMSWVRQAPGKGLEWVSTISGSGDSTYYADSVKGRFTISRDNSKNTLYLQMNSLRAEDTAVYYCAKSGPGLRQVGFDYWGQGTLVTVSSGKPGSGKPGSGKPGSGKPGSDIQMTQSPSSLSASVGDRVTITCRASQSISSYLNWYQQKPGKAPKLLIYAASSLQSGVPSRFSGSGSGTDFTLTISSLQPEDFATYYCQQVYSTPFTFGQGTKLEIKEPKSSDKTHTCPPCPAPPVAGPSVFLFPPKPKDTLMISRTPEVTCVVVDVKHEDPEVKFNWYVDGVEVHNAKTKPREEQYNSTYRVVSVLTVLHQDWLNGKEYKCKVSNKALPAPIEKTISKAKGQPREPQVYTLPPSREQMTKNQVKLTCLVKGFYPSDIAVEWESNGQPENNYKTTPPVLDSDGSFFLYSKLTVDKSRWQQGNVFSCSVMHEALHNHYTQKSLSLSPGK
light: EIVLTQSPGTLSLSPGERATLSCRVSSSISSSNLHWYQQKPGQSPRPLIYGTSNLASGVPVRFSGSGSGTDYTLTISRLEPEDFAVYYCQQWSSYPLYTFGGGTKVEIKRTVAAPSVFIFPPSDEQLKSGTASVVCLLNNFYPREAKVQWKVDNALQSGNSQESVTEQDSKDSTYSLSSTLTLSKADYEKHKVYACEVTHQGLSSPVTKSFNRGEC
notes: 1+1 Fab-scFv-Fc format; also called αPDL1×αCD28 bsAb; 1A7_H1.1_L1.71
B8: XENP37412 (bispecific antibody)
heavy: EVQLLESGGGLVQPGGSLRLSCAASGFTFSSYDMSWVRQAPGKRLEWVSTISSGGSFTHYPDSVKGRFTISRDNSKNTLYLQMNSLRAEDTAVYYCVRRSGDWYFDVWGAGTTVTVSSASTKGPSVFPLAPSSKSTSGGTAALGCLVKDYFPEPVTVSWNSGALTSGVHTFPAVLQSSGLYSLSSVVTVPSSSLGTQTYICNVNHKPSDTKVDKKVEPKSCDKTHTCPPCPAPPVAGPSVFLFPPKPKDTLMISRTPEVTCVVVDVKHEDPEVKFNWYVDGVEVHNAKTKPREEEYNSTYRVVSVLTVLHQDWLNGKEYKCKVSNKALPAPIEKTISKAKGQPREPQVYTLPPSREEMTKNQVSLTCDVSGFYPSDIAVEWESDGQPENNYKTTPPVLDSDGSFFLYSKLTVDKSRWEQGDVFSCSVMHEALHNHYTQKSLSLSPGK
scFv-Fc: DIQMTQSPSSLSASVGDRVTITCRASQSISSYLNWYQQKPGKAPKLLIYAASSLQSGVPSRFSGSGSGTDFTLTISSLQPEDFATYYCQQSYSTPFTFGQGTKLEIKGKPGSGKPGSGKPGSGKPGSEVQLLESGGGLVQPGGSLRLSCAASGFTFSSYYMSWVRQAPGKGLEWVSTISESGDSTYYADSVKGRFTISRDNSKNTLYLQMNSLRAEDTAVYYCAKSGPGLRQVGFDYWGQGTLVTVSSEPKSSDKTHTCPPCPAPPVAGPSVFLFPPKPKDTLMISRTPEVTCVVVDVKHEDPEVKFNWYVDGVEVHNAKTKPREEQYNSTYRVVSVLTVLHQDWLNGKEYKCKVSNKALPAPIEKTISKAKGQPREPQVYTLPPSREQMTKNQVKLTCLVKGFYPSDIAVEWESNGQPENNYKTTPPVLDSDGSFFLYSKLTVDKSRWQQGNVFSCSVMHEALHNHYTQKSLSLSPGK
light: EIVLTQSPGTLSLSPGERATLSCRVSSSISSSNLHWYQQKPGQSPRPLIYGTSNLASGVPVRFSGSGSGTDYTLTISRLEPEDFAVYYCQQWSSYPLYTFGGGTKVEIKRTVAAPSVFIFPPSDEQLKSGTASVVCLLNNFYPREAKVQWKVDNALQSGNSQESVTEQDSKDSTYSLSSTLTLSKADYEKHKVYACEVTHQGLSSPVTKSFNRGEC
notes: 1+1 Fab-scFv-Fc format; scFv in VL-linker-VH orientation; also called αPDL1×αCD28 bsAb; 1A7_L1_H1.14
B9: XENP36233 (bispecific antibody)
heavy: EVQLLESGGGLVQPGGSLRLSCAASGFTFSSYDMSWVRQAPGKRLEWVSTISSGGSFTHYPDSVKGRFTISRDNSKNTLYLQMNSLRAEDTAVYYCVRRSGDWYFDVWGAGTTVTVSSASTKGPSVFPLAPSSKSTSGGTAALGCLVKDYFPEPVTVSWNSGALTSGVHTFPAVLQSSGLYSLSSVVTVPSSSLGTQTYICNVNHKPSDTKVDKKVEPKSCDKTHTCPPCPAPPVAGPSVFLFPPKPKDTLMISRTPEVTCVVVDVKHEDPEVKFNWYVDGVEVHNAKTKPREEEYNSTYRVVSVLTVLHQDWLNGKEYKCKVSNKALPAPIEKTISKAKGQPREPQVYTLPPSREEMTKNQVSLTCDVSGFYPSDIAVEWESDGQPENNYKTTPPVLDSDGSFFLYSKLTVDKSRWEQGDVFSCSVMHEALHNHYTQKSLSLSPGK
scFv-Fc: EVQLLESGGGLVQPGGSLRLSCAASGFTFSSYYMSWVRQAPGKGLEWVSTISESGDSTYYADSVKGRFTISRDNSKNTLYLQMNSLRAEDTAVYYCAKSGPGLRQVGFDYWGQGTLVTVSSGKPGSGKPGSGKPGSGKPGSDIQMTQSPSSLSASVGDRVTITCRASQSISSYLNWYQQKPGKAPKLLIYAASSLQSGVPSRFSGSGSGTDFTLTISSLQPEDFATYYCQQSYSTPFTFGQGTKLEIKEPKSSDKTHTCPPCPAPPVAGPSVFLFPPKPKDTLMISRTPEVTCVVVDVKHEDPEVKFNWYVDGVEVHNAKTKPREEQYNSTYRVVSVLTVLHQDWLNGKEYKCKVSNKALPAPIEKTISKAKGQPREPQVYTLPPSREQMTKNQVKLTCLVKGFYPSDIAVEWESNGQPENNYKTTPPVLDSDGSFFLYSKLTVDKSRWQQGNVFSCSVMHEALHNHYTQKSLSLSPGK
light: EIVLTQSPGTLSLSPGERATLSCRVSSSISSSNLHWYQQKPGQSPRPLIYGTSNLASGVPVRFSGSGSGTDYTLTISRLEPEDFAVYYCQQWSSYPLYTFGGGTKVEIKRTVAAPSVFIFPPSDEQLKSGTASVVCLLNNFYPREAKVQWKVDNALQSGNSQESVTEQDSKDSTYSLSSTLTLSKADYEKHKVYACEVTHQGLSSPVTKSFNRGEC
notes: 1+1 Fab-scFv-Fc format, heterodimeric IgG1 Fc with FcγR ablation variants; also called αPDL1×αCD28 bsAb; 2G4 H1L1 Fab × 1A7_H1.14_L1 scFv

What follows are binders tested against T1, human PDL1 antigen (human, UniProt Q9NZQ7 19-238) (assay: Biacore (SPR), Fab arm in a bsAb; value told in the text).
T1 construct: they are put here
B1 showed a Kd of 0.86 nM. For B2, the Kd was 0.8 nM. Binder B3 has a Kd of 0.17 nM. For B4, the Kd was 0.42 nM.

What follows are binders tested against T2, human CD28 (human, UniProt P10747 19-152) (assay: Octet (BLI), scFv arm in the bsAb; value told in the text).
T2 construct: also called Cluster of Differentiation 28; Tp44
B5 gave a Kd of 37 nM. B6 gave a Kd of 180 nM. In the case of B7, the Kd is reported as 96 nM. Binder B8 has a Kd of 286 nM. B9 gave a Kd of 240 nM.
